Measured values published in PMC7332344.

Target: Rhodobacter sphaeroides TSPO A139T mutant (Rhodobacter sphaeroides) (UniProt Q9RFC8)
Assay: native MS

- stoichiometry N: 2
Substance: Rhodobacter sphaeroides TSPO A139T mutant (from UniProt Q9RFC8 1-157) (natural protein)
